In test [1] the target is EBV-LMP2 peptide/HLA-A*02:01 complex as naturally presented on HLA-A*02:01+ EBV+ cells (BLCL, tumour cell lines) (human; Epstein-Barr virus). Nature of the test: cell-based or functional assay.
Test [2] concerns the target P19 peptide (mixture of 19 endogenous control peptides) loaded T2 cell. Nature of the test: flow cytometry, phage antibody on peptide loaded T2 cells. On the technique in general: A flow cytometer gives signals particle by particle.
Test [3] addresses EBV-LMP2 peptide presented by HLA-A*02:06 on artificial antigen presenting cells (human; Epstein-Barr virus).

Changes are numbered by the printed parent chain.

B1: LMP2-38 Dimeric BsAb (bispecific antibody, part only)
VH: QSALTQPASVSGSPGQSITISCTGTSSDVGSYNDVSWYQQHPGKAPKLMIYDVSNRPSGVSNRFSGSKSGNTASLTISGLQTEDEADYYCNSYTSSNTYVFGTGTKVTVLG
VL: QVQLVQSGAEVKKPGASVQVSCRASGYTITSYYMHWVRQAPGQGLEWMGVINPNAGSTRYAQKFQGRVTMSTDTSTSTVYMALSSLRSDDTAVYYCARGMYRMYDWGQGTLVTVSS
chain 1: DVQLVQSGAEVKKPGASVKVSCKASGYTFTRYTMHWVRQAPGQGLEWIGYINPSRGYTNYADSVKGRFTITTDKSTSTAYMELSSLRSEDTATYYCARYYDDHYSLDYWGQGTTVTVSSGEGTSTGSGGSGGSGGADDIVLTQSPATLSLSPGERATLSCRASQSVSYMNWYQQKPGKAPKRWIYDTSKVASGVPARFSGSGSGTDYSLTINSLEAEDAATYYCQQWSSNPLTFGGGTKVEIK
chain 2: RTPLGDTTHTSGMVSKLSQLQTELLAALLESGLSKEALIQALGEGSGGAPHHHHHH
As for B1, in test [1], the % Max Killing, DT BLCL (T cell dependent cytotoxicity, 51Cr release) worked out at 39.9%; the % Max Killing, F BLCL (T cell dependent cytotoxicity, 51Cr release) is 25.8%; the % Max Killing, HONE-1-A2 (T cell dependent cytotoxicity, 51Cr release) worked out at 16.8%; the % Max Killing, RPMI-6666 (T cell dependent cytotoxicity, 51Cr release) was found to be 26.5%. Also, in test [1], the EC50 (µg/mL), DT BLCL (T cell dependent cytotoxicity) amounted to 0.025 µg/mL; the EC50 (µg/mL), F BLCL (T cell dependent cytotoxicity) was 0.033 µg/mL; the EC50 (µg/mL), HONE-1-A2 (T cell dependent cytotoxicity) was 0.024 µg/mL; the EC50 (µg/mL), RPMI-6666 (T cell dependent cytotoxicity) was 0.037 µg/mL.

B2: LMP2-38-11 (antibody, name in Kabat numbering, V domains shown)
VH: B1 VL with G26E, I51V
VL: B1 VH
With B2, in test [2], the ratio of specific phage antibody FACS signal to negative control FACS signal lay in the range of 2 to 10.

B3: LMP2-38 IgG1 (antibody, V domains shown)
VH: B1 VL
VL: B1 VH
In test [3], B3 registered a number beside the legend entry (name not given; FL2-H histogram) of 81.5.

For the origin of these results see US20180258187A1.
